In publication PMC12249877, “AlphaFold 3-Assisted Deciphering of the DNA Recognition by DREB1 Transcription Factors in Rice”:

Legend:
[1] = target: OsDREB1A-DBD V64A (Oryza sativa (rice), UniProt Q64MA1 32-103, V64A); experiment: EMSA; 0.6 uM protein; EMSA: 0.01 uM FAM-dsDNA, 50 mM NaH2PO4, 150 mM NaCl, 5 mM DTT, 2% glycerol, pH 6.8, 15 min, room temperature; 12% native PAGE in 0.5x TBE; details: protein: recombinant; tags: C-terminal His-tag (pET28); blunt
[2] = target: OsDREB1A-DBD F43G (Oryza sativa (rice), UniProt Q64MA1 32-103, F43G); experiment: as above; details: protein: recombinant; tags: C-terminal His-tag (pET28); blunt
Chain of OsDREB1A-DBD F43G (Q64MA1 32-103 F43G): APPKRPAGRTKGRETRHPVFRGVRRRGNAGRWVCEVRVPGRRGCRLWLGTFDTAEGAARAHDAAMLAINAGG

Chain of OsDREB1A-DBD V64A (Q64MA1 32-103 V64A): as the sequence (Q64MA1 32-103 F43G) above, with G12F, V33A counted along it

B1: CRT (dsDNA)
DNA 1: GTACGCCGACACT
DNA 2: AGTGTCGGCGTAC
- binding result [1]: binds
- binding result [2]: binds
